Among the data in paper PMC10184827 are actin filament elongation rate by TIRF microscopy, 1 µM actin with 2 µM PFN1 and 10 nM mDia1(FH1-C) (subunits s^−1 µM^−1) and filament elongation rate (subunits s^−1 µM^−1) values, retold here.

Assay [1] deals with human β-actin (cytoplasmic actin, ACTB) purified from budding yeast (human) (UniProt P60709).
The target of assay [2] is rabbit muscle actin (RMA; α-actin) (rabbit) (UniProt P68135).
Assay [3] has as its target human γ-actin (γ1-actin, cytoplasmic actin, ACTG1) purified from budding yeast (human) (UniProt P63261).
Assay [4] addresses rabbit muscle actin (RMA; α-actin) (rabbit) (UniProt P68135). Put plainly: TIRF microscopy of single filament polymerization; 1 µM total actin monomers with 10% fluorescently labeled RMA; TIRF buffer (20 mM imidazole pH 7.4, 50 mM KCl, 1 mM MgCl2, 1 mM EGTA, 0.2 mM ATP, 10 mM DTT, 40 mM glucose, 0.25% methylcellulose); monomer addition to growing filaments.

mDia1(FH1-C) (amino acids 571–1255), sequence (O08808 571-1255): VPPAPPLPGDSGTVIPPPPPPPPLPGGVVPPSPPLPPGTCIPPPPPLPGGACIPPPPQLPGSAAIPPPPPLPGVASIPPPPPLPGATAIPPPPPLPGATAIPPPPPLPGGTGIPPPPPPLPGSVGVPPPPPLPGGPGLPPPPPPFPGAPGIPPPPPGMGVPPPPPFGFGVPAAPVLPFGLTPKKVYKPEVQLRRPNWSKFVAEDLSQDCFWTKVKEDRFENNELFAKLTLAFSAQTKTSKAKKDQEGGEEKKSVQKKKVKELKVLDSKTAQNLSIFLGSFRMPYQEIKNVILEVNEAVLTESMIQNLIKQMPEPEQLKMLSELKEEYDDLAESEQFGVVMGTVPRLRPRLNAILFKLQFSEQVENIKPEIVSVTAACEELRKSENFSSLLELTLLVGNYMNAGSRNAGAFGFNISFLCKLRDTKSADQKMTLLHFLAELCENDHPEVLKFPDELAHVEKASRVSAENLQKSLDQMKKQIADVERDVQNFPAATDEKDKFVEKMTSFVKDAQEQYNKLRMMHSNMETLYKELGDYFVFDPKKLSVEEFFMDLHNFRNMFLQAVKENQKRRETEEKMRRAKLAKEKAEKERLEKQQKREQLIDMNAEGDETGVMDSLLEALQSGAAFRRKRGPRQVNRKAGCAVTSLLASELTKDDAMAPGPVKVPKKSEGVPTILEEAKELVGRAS

Take “mDia1(FH1-C) (amino acids 571–1255) (from UniProt O08808 571-1255) (domain or fragment)”: the actin filament elongation rate by TIRF microscopy, 1 µM actin with 2 µM PFN1 and 10 nM mDia1(FH1-C) (subunits s^−1 µM^−1) worked out at 59.3 in assay [1], 73.6 in assay [2] and 61.2 in assay [3].

Regarding “rabbit muscle actin (RMA; α-actin) (from UniProt P68135 1-377) (natural protein)”, the filament elongation rate (subunits s^−1 µM^−1) in assay [4] is 10.
